Patent US20080058275, “Rna Interferases And Methods Of Use Thereof” (published 2008)

Tests used:
(His)6MazE(R48A) = (His)6MazE(R48A) (Escherichia coli, UniProt P0AE72 SEQ:1-82, R48A); experiment: EMSA; data not shown; details: tags: N-terminal His6; chain copies: 2; label: 32P
(His)6MazE(F53A) = (His)6MazE(F53A) (Escherichia coli, UniProt P0AE72 SEQ:1-82, F53A); experiment: EMSA; data not shown; details: tags: N-terminal His6; chain copies: 2; label: 32P
(His)6MazE(E57Q) = (His)6MazE(E57Q) (Escherichia coli, UniProt P0AE72 SEQ:1-82, E57Q); experiment: EMSA; data not shown; details: tags: N-terminal His6; chain copies: 2; label: 32P
(His)6MazE-MazF complex = (His)6MazE-MazF complex (Escherichia coli, UniProt P0AE72;P0AE70 SEQ:1-82,SEQ:1-111); experiment: EMSA; shift at 0.2 uM MazE, MazE:MazF 1:2; more than ten-fold enhancement over MazE; details: tags: N-terminal His6 on MazE; chain copies: MazF2-MazE2-MazF2 (stated); label: 32P
(His)6MazE = (His)6MazE (Escherichia coli, UniProt P0AE72 SEQ:1-82); experiment: EMSA; discrete shift at 2 uM or higher; smear at 0.4-1.0 uM; 5 mM MgCl2, poly(dI-dC), 4 C; details: tags: N-terminal His6; chain copies: 2 (inferred); label: 32P
MazF = MazF (Escherichia coli, UniProt P0AE70 SEQ:1-111); experiment: EMSA; no binding up to 20 uM; details: tags: untagged; chain copies: 2; label: 32P
(His)6MazE(R16A) = (His)6MazE(R16A) (Escherichia coli, UniProt P0AE72 SEQ:1-82, R16A); experiment: EMSA; 4 uM; details: tags: N-terminal His6; chain copies: 2; label: 32P
(His)6MazE(R8A) = (His)6MazE(R8A) (Escherichia coli, UniProt P0AE72 SEQ:1-82, R8A); experiment: EMSA; 4 uM; details: tags: N-terminal His6; chain copies: 2; label: 32P
(His)6MazE(K7A) = (His)6MazE(K7A) (Escherichia coli, UniProt P0AE72 SEQ:1-82, K7A); experiment: EMSA; 4 uM; details: tags: N-terminal His6; chain copies: 2; label: 32P
(His)6MazE(S12A) = (His)6MazE(S12A) (Escherichia coli, UniProt P0AE72 SEQ:1-82, S12A); experiment: EMSA; 4 uM; details: tags: N-terminal His6; chain copies: 2; label: 32P
MazE-MazF(His)6 complex = MazE-MazF(His)6 complex (Escherichia coli, UniProt P0AE72;P0AE70 SEQ:1-82,SEQ:1-111); experiment: EMSA; 1 uM complex; details: tags: C-terminal His6 on MazF; chain copies: MazF2-MazE2-MazF2 (stated); label: 32P

B1: mazEF promoter 50-bp (dsDNA)
DNA 1: GCTCGTATCTACAATGTAGATTGATATATACTGTATCTACATATGATAGC
DNA 2: GCTATCATATGTAGATACAGTATATATCAATCTACATTGTAGATACGAGC
B1: binds ((His)6MazE(R48A)); binds ((His)6MazE(F53A)); binds ((His)6MazE(E57Q)). B1: binds ((His)6MazE-MazF complex); binds ((His)6MazE); no binding (MazF). B1: no binding ((His)6MazE(R16A)); no binding ((His)6MazE(R8A)); no binding ((His)6MazE(K7A)). B1: no binding ((His)6MazE(S12A)); binds (MazE-MazF(His)6 complex).
